Measurements reported in publication PMC4635001, “Structural Characterisation of FabG from Yersinia pestis, a Key Component of Bacterial Fatty Acid Synthesis” (PLoS ONE, 2015).

Biological target: the molecule itself
Assay: crystal structure

B1: Yersinia pestis FabG (ketoacyl-acyl carrier protein reductase) (enzyme)
chain: MSFEGKIALVTGASRGIGRAIAELLVERGACVIGTATSEKGAEAISAYLGENGKGLMLNVVDPTSIDTVLATIRAEFGEVDILVNNAGITRDNLLMRMKDDEWQDIIDTNLTSVFRLSKAVMRAMMKKRFGRIITIGSVVGTMGNAGQVNYAAAKAGVIGFSKSLAREVASRGITVNVVAPGFIETDMTRTLTDDQRAGILAQVPANRLGDAKEIASAVAFLASDEASYISGETLHVNGGMYMI
notes: also called YpFabG; YpFabG TMAO
For B1, the “stoichiometry N” value was 4.
